Experiment [1] has as its target NELL2, full length (Supplementary Fig. 9c; species not stated) (not stated (human or mouse cDNA cloned)) (UniProt Q99435). Description: non-reducing SDS-PAGE; NELL2 and NELL2ΔCC on non-reducing (-DTT) and reducing (+DTT) SDS-PAGE; size from ladder standards.
In experiment [2] the target is biotinylated mouse Robo3 FN1–3 (Avi-tagged) (mouse) (UniProt Q9Z2I4). The experiment in a line: SPR; biotinylated mRobo3 FN1–3 captured on an SA chip (Biacore); mNELL2 EGF1–6 WT and mutants as analyte; 25 °C, 10 mM HEPES pH 7.2, 150 mM NaCl, 0.05% Tween-20, 0.1% BSA; 1:1 Langmuir isotherm.
Chain of biotinylated mouse Robo3 FN1–3 (Avi-tagged) (mouse) (Q9Z2I4 558-869): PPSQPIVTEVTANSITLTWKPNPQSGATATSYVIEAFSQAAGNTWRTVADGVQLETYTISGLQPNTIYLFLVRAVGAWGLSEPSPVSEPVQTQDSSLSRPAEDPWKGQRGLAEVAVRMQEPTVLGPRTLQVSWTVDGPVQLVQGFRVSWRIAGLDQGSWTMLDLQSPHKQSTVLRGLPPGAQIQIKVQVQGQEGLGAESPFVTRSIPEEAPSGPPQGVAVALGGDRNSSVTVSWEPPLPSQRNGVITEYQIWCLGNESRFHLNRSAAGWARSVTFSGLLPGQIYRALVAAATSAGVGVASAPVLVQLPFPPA
The target of a further experiment is mRobo3 FN1-3 (mouse). Description: SPR; biotinylated mRobo3 FN1-3 on a Biacore SA chip; mNELL2 EGF1-6 WT and mutants as analytes over the same channel; 20 s 10 mM EDTA pH 8, 150 mM NaCl between runs; 25 °C, 10 mM HEPES pH 7.2, 150 mM NaCl, 0.05% Tween-20, 0.1% BSA; equilibrium, 1:1 Langmuir.
In experiment [3] the target is mRobo1 ectodomain (mouse) (UniProt O89026). The experiment in a line: SPR; mRobo1 ectodomain on a CM5 chip by random amine coupling (~1,200 RU); mNELL2 as analyte; 25 °C, 10 mM HEPES pH 7.2, 150 mM NaCl, 0.05% Tween-20, 0.1% BSA; KD from equilibrium responses assuming 50 to 100% active surface. (Surface plasmon resonance follows binding to a sensor surface in real time, without labels.)
Chain of mRobo1 ectodomain (mouse) (O89026 30-840): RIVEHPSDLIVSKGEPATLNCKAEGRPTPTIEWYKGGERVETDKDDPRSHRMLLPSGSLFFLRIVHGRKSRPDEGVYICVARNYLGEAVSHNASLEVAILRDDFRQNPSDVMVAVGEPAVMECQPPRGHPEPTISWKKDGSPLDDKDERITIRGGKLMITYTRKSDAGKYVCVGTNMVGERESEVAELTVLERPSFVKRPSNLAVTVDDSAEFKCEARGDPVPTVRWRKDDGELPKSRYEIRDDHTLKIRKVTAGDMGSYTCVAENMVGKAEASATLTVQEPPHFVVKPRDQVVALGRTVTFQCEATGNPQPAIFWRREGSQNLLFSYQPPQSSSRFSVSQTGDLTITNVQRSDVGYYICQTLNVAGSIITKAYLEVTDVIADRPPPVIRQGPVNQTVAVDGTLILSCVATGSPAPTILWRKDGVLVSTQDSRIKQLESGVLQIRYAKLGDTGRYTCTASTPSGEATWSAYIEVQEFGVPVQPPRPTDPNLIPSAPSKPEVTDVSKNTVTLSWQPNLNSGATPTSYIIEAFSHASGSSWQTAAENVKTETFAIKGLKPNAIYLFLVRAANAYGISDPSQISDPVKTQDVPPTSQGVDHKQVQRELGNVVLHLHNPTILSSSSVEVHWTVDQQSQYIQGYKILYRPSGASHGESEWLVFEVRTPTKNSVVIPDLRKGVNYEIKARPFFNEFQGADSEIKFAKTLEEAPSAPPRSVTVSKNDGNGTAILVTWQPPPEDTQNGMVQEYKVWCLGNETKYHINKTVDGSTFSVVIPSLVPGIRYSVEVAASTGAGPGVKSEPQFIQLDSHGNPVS

For experiment [4], the target named is mNELL2 (full length) (mouse). Description: SEC-MALS; Superose 6 Increase 10/300 in HBS (10 mM HEPES pH 7.2, 150 mM NaCl), Wyatt HELEOS II.
Experiment [5] addresses mRobo1Robo3-FN1 ECD chimera (mouse) (UniProt O89026). The experiment in a line: SPR; mRobo3 ECD (167 RU) or mRobo1Robo3-FN1 ECD (177 RU), NHS-biotin, on a Biacore Series S SA chip; mNELL2 full length or mNELL2 EGF1-6 as analyte; regeneration with 10 mM EDTA; equilibrium, 1:1 model with a linear non-specific binding term.
The target of experiment [6] is mRobo3 ectodomain (mouse). Described as above.
Experiment [7] addresses mRobo1 ectodomain (mouse) (UniProt O89026). The experiment in a line: SPR; mRobo1 ectodomain on a CM5 chip by random amine coupling (~1,200 RU); mNELL2 as analyte; 25 °C, 10 mM HEPES pH 7.2, 150 mM NaCl, 0.05% Tween-20, 0.1% BSA; KD from equilibrium responses assuming 50 to 100% active surface. This is another data set of the same source.
Experiment [8] has as its target mNELL2 (full length) (mouse). Description: SEC; mNELL2 with excess mRobo3 FN1 on Superose 6 10/300; complex fractions quantified by fluorescent anti-His western blot against 1:1 standards. Background: SEC sorts molecules by how far they enter the pores of the column.
Experiment [9] deals with mNELL2ΔCC (mouse). The experiment in a line: SPR; mNELL2 or mNELL2ΔCC (100 RU each, NHS-biotin) on a Biacore Series S SA chip; mRobo3 ECD or mRobo3 FN1 as analyte; regeneration with 10 mM EDTA; equilibrium analysis.
Experiment [10] deals with mNELL2 (full length) (mouse). The description is as above.
Experiment [11] addresses mNELL2ΔCC (mouse). The experiment is described as above. The source holds these as a separate data set.
Experiment [12] deals with full-ectodomain Robo surface (SPR with full-length NELL2 as analyte). The experiment in a line: SPR; mRobo3 ECD (167 RU) and mRobo1^Robo3-FN1 ECD (177 RU) biotinylated with NHS-Biotin and captured on a Biacore Series S SA chip; full-length mNELL2 as analyte; 1:1 Langmuir isotherm with a linear nonspecific-binding term; regeneration with 10 mM EDTA.
The target in a further experiment is mRobo1 FN1-3 (mouse) (UniProt O89026). The experiment in a line: SPR; mRobo1 FN1-3 (NHS-biotin on the N-terminal amine, 315 RU) on a Biacore SA chip; mNELL2 EGF1-6 as analyte; 25 °C, 10 mM HEPES pH 7.2, 150 mM NaCl, 0.05% Tween-20, 0.1% BSA; 1:1 Langmuir.
Chain of mRobo1 FN1-3 (mouse) (O89026 519-840): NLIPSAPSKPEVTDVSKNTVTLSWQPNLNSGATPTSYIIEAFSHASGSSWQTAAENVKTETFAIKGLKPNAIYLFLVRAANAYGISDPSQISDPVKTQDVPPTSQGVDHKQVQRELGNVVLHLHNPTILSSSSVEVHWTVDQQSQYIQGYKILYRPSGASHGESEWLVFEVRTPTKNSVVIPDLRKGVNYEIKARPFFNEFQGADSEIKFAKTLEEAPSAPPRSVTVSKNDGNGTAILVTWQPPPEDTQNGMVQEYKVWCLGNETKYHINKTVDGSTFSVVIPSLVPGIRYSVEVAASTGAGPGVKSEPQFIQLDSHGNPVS

“And” between values parts separate entries of the source, which are not always exact repeats. Equal values may be shown once. Read-outs that look alike come from different tables or passages of the source.

Chain of full-length mouse NELL2 (Q61220 25-819): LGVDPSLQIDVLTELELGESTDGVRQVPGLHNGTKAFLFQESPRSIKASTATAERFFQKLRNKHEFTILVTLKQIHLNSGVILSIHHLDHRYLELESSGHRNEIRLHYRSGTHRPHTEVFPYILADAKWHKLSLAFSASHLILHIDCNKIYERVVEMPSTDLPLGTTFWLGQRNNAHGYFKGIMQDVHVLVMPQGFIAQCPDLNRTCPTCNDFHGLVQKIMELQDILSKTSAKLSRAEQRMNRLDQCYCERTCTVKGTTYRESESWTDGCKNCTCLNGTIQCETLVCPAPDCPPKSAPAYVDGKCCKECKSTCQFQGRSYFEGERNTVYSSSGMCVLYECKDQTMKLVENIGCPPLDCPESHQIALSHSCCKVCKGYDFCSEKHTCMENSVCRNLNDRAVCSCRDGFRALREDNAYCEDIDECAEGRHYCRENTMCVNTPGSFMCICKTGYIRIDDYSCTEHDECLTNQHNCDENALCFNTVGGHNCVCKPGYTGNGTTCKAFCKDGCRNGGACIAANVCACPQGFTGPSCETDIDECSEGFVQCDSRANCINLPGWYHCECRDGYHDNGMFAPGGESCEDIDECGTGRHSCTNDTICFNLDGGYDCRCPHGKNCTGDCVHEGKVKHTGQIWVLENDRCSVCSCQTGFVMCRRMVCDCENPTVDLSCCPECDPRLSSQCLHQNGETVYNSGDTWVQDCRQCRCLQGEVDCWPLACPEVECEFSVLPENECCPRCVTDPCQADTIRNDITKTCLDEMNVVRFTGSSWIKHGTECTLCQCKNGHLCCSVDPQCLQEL

By stoichiometry N is commonly meant the number of molecules, sites or subunits per partner or assembly. For the substance “NELL2, full length (Supplementary Fig. 9c; species not stated) (from UniProt Q99435 22-816) (ligand)”, the stoichiometry N in experiment [1] came to 3.
By Kd is commonly meant the equilibrium constant for the complex coming apart. Higher therefore signals a looser complex. In [2], “mouse NELL2 EGF1–6 V509A (domain or fragment)” yielded a Kd of 1.7 µM and a fold reduction of affinity against wild-type mNELL2 of 2.4 fold.
Regarding “mNELL2 EGF1-6 V509A (domain or fragment)”, the Kd with mRobo3 FN1-3 (mouse) was determined as 1.7 µM.
The substance “mNELL2 EGF1-6 R452A (domain or fragment)” came in with a Kd in the experiment with mRobo3 FN1-3 (mouse) of 1.7 µM.
For mNELL2 (full length) (ligand), the Kd in experiment [3] was > 100 µM; in experiment [5], 0.47 µM; in experiment [6], 0.94 µM; in experiment [7] it was 350 µM. Further, the stoichiometry N in experiment [4] turned out to be 3.
With mRobo3 FN1 (domain or fragment), in experiment [8], the stoichiometry N (mNELL2:mRobo3 FN1 (molar ratio)) is 1.16. For the same substance, the Kd with mNELL2ΔCC (mouse) [9] is 0.72 µM; in experiment [10], 0.51 µM; in the experiment with mNELL2ΔCC (mouse) [11], 0.71 µM and 0.89 µM.
For “full-length mouse NELL2 (from UniProt Q61220 25-819) (ligand)”, the Kd in experiment [12] lay in the range of 0.5 to 1 µM.
In experiment [2], “mouse NELL2 EGF1–6 R448A/Y450A (domain or fragment)” came in with a fold reduction of affinity against wild-type mNELL2 of 120 fold.
For “mNELL2 EGF1-6 R448A/Y450A (domain or fragment)”, the equilibrium dissociation constant (Kd) with mRobo3 FN1-3 (mouse) was determined as 87 µM.
For the substance “mouse NELL2 EGF1–6 L498A/F500A (domain or fragment)”, in [2], the Kd is > 100 µM and the fold reduction of affinity against wild-type mNELL2 worked out at 500 fold.
Consider mRobo3 ectodomain (domain or fragment), for which the Kd worked out at 1.8 µM in the experiment with mNELL2ΔCC (mouse) [9] and 0.89 µM in [10].
For “mouse NELL2 EGF1–6 R452A (domain or fragment)”, in experiment [2], the Kd was found to be 1.7 µM and the fold reduction of affinity against wild-type mNELL2 was 2.4 fold.
With mNELL2 EGF1-6 WT (domain or fragment), the Kd in [5] amounted to 1.7 µM; in experiment [6], 1.7 µM; with mRobo3 FN1-3 (mouse), 0.71 µM; in the experiment with mRobo1 FN1-3 (mouse), 13.8 µM.

For the origin of these results see article PMC7083938.
